Where “and” joins values, the source holds several entries; their conditions need not be identical. Equal values may be shown once.
Key:
[1] = target: 人CLDN18.2(hCLDN18.2) (human) (UniProt P56856); test: flow cytometry, CF488-labelled antibody 10μg/ml on hCLDN18.2+cell; range over the binding value and the time points
[2] = target: 人CLDN18.2(hCLDN18.2) (human) (UniProt P56856); test: flow cytometry, CF633-labelled antibody 2.5μg/ml on hCLDN18.2+cell; background
[3] = target: 人CLDN18.2(hCLDN18.2) (human) (UniProt P56856); test: flow cytometry, CF633-labelled antibody 10μg/ml on hCLDN18.2+cell; range over the binding value and the time points
[4] = target: 鼠CLDN18.2(mCLDN18.2) (mouse) (UniProt P56857); test: cell ELISA on fixed mCLDN18.2+cell; background
UniProt P56857, sequence (P56857 other isoform, or with tags, fused parts or gaps, form in doubt): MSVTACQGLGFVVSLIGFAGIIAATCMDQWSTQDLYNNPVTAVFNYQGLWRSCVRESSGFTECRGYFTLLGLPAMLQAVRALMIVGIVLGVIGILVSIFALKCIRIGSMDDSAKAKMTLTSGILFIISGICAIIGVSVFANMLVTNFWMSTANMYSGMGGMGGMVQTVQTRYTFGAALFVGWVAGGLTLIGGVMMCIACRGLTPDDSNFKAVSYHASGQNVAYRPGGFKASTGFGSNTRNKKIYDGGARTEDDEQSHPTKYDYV

Q: Neg IgG (和靶点没有结合的非特异性抗体) (antibody) was tested. Which 荧光强度值(本底) [1] did it give?
A: The 荧光强度值(本底) was 1280 to 3480.

Q: What about the 结合值 (FACS读值) [2] of the same substance?
A: Its 结合值 (FACS读值) is 932.

Q: What about the 荧光强度值(本底) [3] of the same substance?
A: Its 荧光强度值(本底) is 23.2 and 14.9.

Q: And the Emax [4]?
A: Its Emax is 0.19.
